Measured values reported in publication PMC4873976, “Structural basis for haem piracy from host haemopexin by Haemophilus influenzae” (Nature Communications, 2016).

T1: Haemopexin (Oryctolagus cuniculus, UniProt P20058)
T1 chain: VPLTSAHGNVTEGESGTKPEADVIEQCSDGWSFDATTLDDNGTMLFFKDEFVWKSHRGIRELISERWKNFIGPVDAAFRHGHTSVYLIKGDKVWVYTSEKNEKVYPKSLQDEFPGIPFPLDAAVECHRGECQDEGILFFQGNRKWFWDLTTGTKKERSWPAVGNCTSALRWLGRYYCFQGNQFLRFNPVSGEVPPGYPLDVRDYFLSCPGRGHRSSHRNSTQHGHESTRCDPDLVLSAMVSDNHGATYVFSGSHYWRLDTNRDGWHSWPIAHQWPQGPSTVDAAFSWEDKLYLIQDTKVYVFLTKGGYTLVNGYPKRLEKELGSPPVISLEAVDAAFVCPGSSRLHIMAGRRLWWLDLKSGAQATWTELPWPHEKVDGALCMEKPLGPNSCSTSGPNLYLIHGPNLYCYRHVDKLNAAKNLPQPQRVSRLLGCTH

T2: HxuA, cysteine-less variant (cysteines 855 and 861 replaced by serines; referred to as HxuA throughout) (Haemophilus influenzae, UniProt P44602 22-905, cysteine at position 855 replaced by serine | cysteine at position 861 replaced …)
T2 construct: HxuA, haem-haemopexin utilisation protein A (TpsA cargo protein) of Haemophilus influenzae, called full-length, 884 residues, Ser1 to Gln884; Measured mass 96,467.6094 (theoretical 96,469.6926); also called HxuAdm; dm variant; source: E. coli BL21, pBAD24 derivative with the hxuCBA operon; purified from the culture supernatant (ammonium sulfate, SEC, monoQ)
T2 sequence: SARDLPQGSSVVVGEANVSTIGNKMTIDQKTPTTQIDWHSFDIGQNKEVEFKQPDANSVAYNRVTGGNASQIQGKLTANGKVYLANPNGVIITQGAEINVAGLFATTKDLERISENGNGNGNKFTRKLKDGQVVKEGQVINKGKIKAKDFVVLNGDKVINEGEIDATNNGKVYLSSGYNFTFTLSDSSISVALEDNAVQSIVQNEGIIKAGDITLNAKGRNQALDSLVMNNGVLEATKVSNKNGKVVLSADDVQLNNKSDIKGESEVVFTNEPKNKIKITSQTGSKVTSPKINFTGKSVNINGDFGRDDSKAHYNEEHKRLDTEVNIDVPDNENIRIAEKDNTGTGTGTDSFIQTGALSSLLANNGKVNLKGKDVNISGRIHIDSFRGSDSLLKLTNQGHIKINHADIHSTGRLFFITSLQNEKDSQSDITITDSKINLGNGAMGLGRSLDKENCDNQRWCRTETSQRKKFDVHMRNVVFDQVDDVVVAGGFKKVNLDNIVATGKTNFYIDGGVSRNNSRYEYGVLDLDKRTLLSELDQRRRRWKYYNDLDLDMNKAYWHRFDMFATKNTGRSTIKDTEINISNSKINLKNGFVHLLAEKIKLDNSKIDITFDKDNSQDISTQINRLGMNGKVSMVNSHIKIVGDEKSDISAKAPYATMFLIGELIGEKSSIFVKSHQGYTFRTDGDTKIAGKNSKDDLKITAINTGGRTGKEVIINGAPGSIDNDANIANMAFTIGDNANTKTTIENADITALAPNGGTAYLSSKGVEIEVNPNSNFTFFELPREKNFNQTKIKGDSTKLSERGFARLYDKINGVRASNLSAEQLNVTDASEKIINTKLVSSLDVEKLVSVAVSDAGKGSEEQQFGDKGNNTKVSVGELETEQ

T3: cysteine-less variant of HxuA^Asp726Ala (Haemophilus influenzae, UniProt P44602 22-905, Asp726Ala | cysteine at position 855 replaced by serine | cysteine at position …)
T3 construct: HxuA of Haemophilus influenzae, as m1 with Asp726Ala; also called dm variant of HxuA^Asp726Ala; source: E. coli, purified from the supernatant (same protocol as HxuA)
T3 sequence: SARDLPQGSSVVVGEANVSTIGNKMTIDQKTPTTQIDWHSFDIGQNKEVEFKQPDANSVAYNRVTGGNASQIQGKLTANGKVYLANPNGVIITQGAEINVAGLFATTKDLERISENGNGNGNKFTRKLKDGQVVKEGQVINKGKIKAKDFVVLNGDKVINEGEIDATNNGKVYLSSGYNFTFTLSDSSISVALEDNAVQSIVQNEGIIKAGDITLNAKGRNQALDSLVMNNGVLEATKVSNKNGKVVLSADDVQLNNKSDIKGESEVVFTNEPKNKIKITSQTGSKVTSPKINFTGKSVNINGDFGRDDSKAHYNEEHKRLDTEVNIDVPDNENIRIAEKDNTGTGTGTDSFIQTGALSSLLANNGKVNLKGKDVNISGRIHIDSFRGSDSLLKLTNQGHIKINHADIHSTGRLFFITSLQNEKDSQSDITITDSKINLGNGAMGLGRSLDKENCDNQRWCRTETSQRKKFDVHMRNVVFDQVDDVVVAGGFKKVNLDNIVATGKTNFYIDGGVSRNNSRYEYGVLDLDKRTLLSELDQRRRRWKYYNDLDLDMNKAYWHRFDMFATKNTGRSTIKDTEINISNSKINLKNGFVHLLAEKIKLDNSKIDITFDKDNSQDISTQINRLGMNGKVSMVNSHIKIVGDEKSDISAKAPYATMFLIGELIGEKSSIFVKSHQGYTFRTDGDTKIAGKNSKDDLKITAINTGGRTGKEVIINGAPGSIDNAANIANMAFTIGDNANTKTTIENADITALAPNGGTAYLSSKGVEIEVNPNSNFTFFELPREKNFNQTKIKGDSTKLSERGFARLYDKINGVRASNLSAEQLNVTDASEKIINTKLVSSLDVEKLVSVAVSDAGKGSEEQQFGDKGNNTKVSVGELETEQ


Tests used:
[1] = biological target: T1, Haemopexin; test: ITC; given as Ka
[2] = biological target: T2, HxuA, cysteine-less variant (cysteines …); test: ITC; haemopexin or its fragments (~100 μM) in the syringe, HxuA (~10 μM) in the cell; 20 mM Na-phosphate pH 7.0, 25 °C; single-site model; apparent Ka; conditions: both partners purified
[3] = biological target: T3, cysteine-less variant of HxuA^Asp726Ala; test: as above; conditions: both partners purified

| Binder | Kd [1] [nM] | Ka [2] [M⁻¹] | dH [2] [kcal/mol] | Ka [3] [M⁻¹] | dH [3] [kcal/mol] |
| --- | --- | --- | --- | --- | --- |
| HxuA (protein) STQGLPQQGLPQQGLPQEDKVVVGQATFDKTIADKMTINQTSDKVQINWHSFDIGQNKEVEFKQPSENSVAYNRVTGGNASQIQGKLTANGKVYLANPNGVIITKGAEINVAGLLATTKDLEQISENSNSYQFTRKTKDRQVVKEGQVINEGEIKAKDFVVLNGDEVINKGNINVEKNSTINGKVYLSSGYNFTFTLSDSGISVALEDNTVRGIVQNEGSIKAGEITLSAKGRKEALDSLVMNNGVLEATKVSNRNGKVVLSADNVQLNNESNIKGEIVNFGTEVTSNEDKKLKITSKTGSKVTSPKINFKGKSVNINGNFGRENSGTHYNEERKTLNTEVNIDVPGAENIRIADDKDNTETDSFIQTEALSSLLANNGKVNLKGNDVNISGNINIDSFRGTDSLLKLTNQGHINIDHADINSKGRLFVVTSLQNDVDFKSNITITDSKINLGNGAMGLGRSVNEDDYATRWKRAEKSQRKKFNVDMRNVVFNQVDEVILAGGFEKVNLDKIVATGQTNFYIDGGVSRNNSRYEYGVLDLDYRTQLSELEQGRRRWRYYRDLDLDMNKAYLYRFDLFAKNNSGRSTIKGTEINISNSNINLKNGFVHLLAENIKLDNSKVDITFDKDNSQDTLAQTNRLGMNGKVSMINSHIKIVGDEKEGISPTGTYATMFLIGELIGEKSSIFVKSHQGYTFKTDGDTKIAGKNSKEDLKITAINTGGRAAEEVLINGALGSADNDANIANMAFTIGDSANTKTTIENADITALAPNGGTAYLSSKDVEIEVKPNSNFTFFELPREKNLNQTKINGASTKLSERGFARLYDKINGVRASNLSAEQLNVTDASEKIINTKLVSSLDVEKLVSVAVCDAGNGCEEQQFGDKGNNTKVSVGELEAEQ | < 1 | – | – | – | – |
| rabbit haem-haemopexin (natural protein, also called He-Hpx; source: purified from rabbit serum (Biosera), haem-loaded) VPLTSAHGNVTEGESGTKPEADVIEQCSDGWSFDATTLDDNGTMLFFKDEFVWKSHRGIRELISERWKNFIGPVDAAFRHGHTSVYLIKGDKVWVYTSEKNEKVYPKSLQDEFPGIPFPLDAAVECHRGECQDEGILFFQGNRKWFWDLTTGTKKERSWPAVGNCTSALRWLGRYYCFQGNQFLRFNPVSGEVPPGYPLDVRDYFLSCPGRGHRSSHRNSTQHGHESTRCDPDLVLSAMVSDNHGATYVFSGSHYWRLDTNRDGWHSWPIAHQWPQGPSTVDAAFSWEDKLYLIQDTKVYVFLTKGGYTLVNGYPKRLEKELGSPPVISLEAVDAAFVCPGSSRLHIMAGRRLWWLDLKSGAQATWTELPWPHEKVDGALCMEKPLGPNSCSTSGPNLYLIHGPNLYCYRHVDKLNAAKNLPQPQRVSRLLGCTH | – | > 1e+09 | -39.8 | 2.9e+06 | -12.8 |
